In patent publication US20260150817A1 (LEVERAGEN, published 2026):
Changes are numbered by the printed parent chain.

B1: M320_5 Nb-Fc (Fc fusion)
chain: EVQLQQSGPELVKPGASVKMSCKASGYTFTDYYIKWEKQSHGKSLEWIGDINPKNGETFYNQQFKGKATLTVDKSSSTAYMQLNSLTSEDSAVYYCARKEYGDYGYAVDYWGQGTSVTVSS
notes: also called LVGN-S3205
B2: M2S320_75 Nb-Fc (Fc fusion)
chain: B1 chain with I34M, E37L, S40N, K54N, E57D, Q63K, K74T, V108T
notes: also called LVGN-S32075
B3: M2S320_377 Nb-Fc (Fc fusion)
chain: B1 chain with I34V, E37K, K54N, E57D, Q63K, G66D, D103N, Y104F
notes: also called LVGN-S320377
B4: M2S521_623 Nb-Fc (Fc fusion)
chain: EVQLQQSGPELVKPGASVKISCKASGYTFTDYYMKWEKQSHGKSLEWIGDINPNNGGTRYNQKFRGKATLTVDKSSSTAYMELRSLTSEDSAVYYCARLEDDYYGYAVDYWGQGTSVTVSS
notes: also called LVGN-S521623
B5: MS521_35 Nb-Fc (Fc fusion)
chain: EVQLQQSGPELVKPGASVKISCKASGYTFTDYYMKWVKQRHGQSLEWIGNINPTNGDTNYSQNFKGKATLTVDKSSTTAYMELRSLTSEDSAVYYCARLEDGYYGYAVDYWGQGTSVTVSS
notes: also called LVGN-S52135
B6: M2S521_193 Nb-Fc (Fc fusion)
chain: B4 chain with E37V, T58A, R65K, K67R, A97S, D102G
notes: also called LVGN-S521193
B7: M2S521_378 Nb-Fc (Fc fusion)
chain: B4 chain with E37V, N54K, R59N, R65K, G66D, D102G, V108I, G112S
notes: also called LVGN-S521378
B8: M2S521_72 Nb-Fc (Fc fusion)
chain: B4 chain with E37A, D50H, N54V, G57D, R59S, R65K, A79V, D102G, A107T, V108M
notes: also called LVGN-S52172

What follows are binders tested against T1, Spike protein of the COVID-19 Spike-ACE2 Binding Assay Kit (Raybiotech) (SARS-CoV-2, UniProt P0DTC2 319-541).

Binder | IC50 [nM]
B1 | 0.4
B2 | 0.12
B3 | 1.6
B4 | 0.13
B5 | 0.49
B6 | 0.16
B7 | 2.2
B8 | 0.041

Target: T1, Spike protein of the COVID-19 …
Remark: another data set of the same source

Binder | IC50 [nM]
B1 | 0.397
B5 | 0.489
